Data reported in US20240043504A1 (published 2024).
Substitutions are numbered along the chain they refer to.

B1: mAb10913 (antibody, V domains shown)
VH: EVQLVESGGGLVQPGGSLRLSCAASGFTFRNYEMNWVRQAPGKGLEWVSYITSSGSTMYYADSVKGRFTISRDNAKNSLYLQMNSLRAEDTAVYYCARDGFYYYYAMDVWGQGTTVTVSS
VL: QSVLTQPPSVSAAPGQKVTISCSGSSSNIGNNYVSWYQQLPGTAPKLLIYDNNKRPSGIPDRFSGSKSGTSATLGITGLQTGDEADYYCGTWDSSLSVGRVFGTGTKVTVLG
B2: mAb10914 (antibody, V domains shown)
VH: EVQLVESGGGLVQPGGSLRLSCAASGLIVSRNYMIWVRQAPGKGLEWVSVIYSGGSTFYADSVKGRFTISRHNSKNTLYLQMNSLRAEDTAVYYCARDLGTGGMDVWGQGTTVTVSS
VL: DIQLTQSPSFLSASVGDRVTITCWASQGISSYLAWYQQKPGKAPKLLIYAASTLQSGVPSRFSGSGSGTEFTLTISSLQPEDFATYYCQQLNSYPLTFGGGTKVEIKR
B3: mAb10915 (antibody, V domains shown)
VH: EVQLVESGGGLVQPGGSLRLSCAASGFTVSSNYMNWVRQAPGKGLEWVSVIYSGGSTFYADSVKGRFTISRHNSKNTLYLQMNSLRPEDTAVYYCARDLGGYFDYWGQGTLVTVSS
VL: not shown
B4: mAb10920 (antibody, V domains shown)
VH: QVQLVESGGGVVQPGRSLRLSCAASGFTFSYYGMHWVRQAPGKGLEWVAVIWYDGSNKFYADSVKGRFTISRDNSKNTLYLQMNSLRAEDTAVYYCAAARPGYYYGMDVWGQGTTVTVSS
VL: DIQMTQSPSSLSASVGDRVTITCRASQGISNYLAWFQQKPGKAPNSLIYAASSLQRGVPSKFSGSGSGTDFTLTISSLQPEDFATYYCQQYNSYPRTFGQGTKVEIKR
B5: mAb10921 (antibody, V domains shown)
VH: EVQLVESGGGLVQPGGSLRLSCAASGITVSSNYMSWVRQAPGKGLEWVSVIYSGGSTFYADSVKGRFTISRHNSKNTLYLQMNSLRAEDTAVYYCARERNFDAFDIWGQGTMVTVSS
VL: DIQMTQSPSSVSASVGDRVTITCRASQGISSWLAWYQQKPGKAPKLLIYAASSLQSGVPSRFSGSGSGTDFTLTISSLQPEDFATYYCQQANSFPLFTFGPGTKVDIKR
B6: mAb10923 (antibody, V domains shown)
VH: QVQLVQSGAEVKKPGASVKVSCKASGYTFINYYIHWVRQAPGQGLEWMGWINPNSGGTNYAQKFQGRVTMTRDTSISTAYMELSRLRSDDTAVYYCAIITIFGVVTWFDPWGQGTLVTVSS
VL: not shown
B7: mAb10930 (antibody, V domains shown)
VH: EVQLVESGGGLVQPGRSLRLSCAASGFTFDDYAMYWVRQAPGKGLEWVSGISWNSGSIGYADSVKGRFTISRDNAKNSLYLQMNSLRAADTALYYCAKDKDWNSRGYYYYGMDVWGQGTTVTVSS
VL: not shown
B8: mAb10932 (antibody, V domains shown)
VH: EVQLVESGGGLVQSGGSLRLSCAASGLTVSSNYMSWVRQAPGKGLEWVSVIYSGGSTFYSDSVKGRFTISRHNSKNTLYLQMNSLRAEDTAVYYCARARGDAFDIWGQGTMVTVSS
VL: not shown
B9: mAb10934 (antibody, V domains shown)
VH: not shown
VL: DIQMTQSPSSLSASVGDRVTITCQASQDIWNYINWYQQKPGKAPKLLIYDASNLKTGVPSRFSGSGSGTDFTFTISSLQPEDIATYYCQQHDDLPPTFGQGTKVEIKR
B10: mAb10935 (antibody, V domains shown)
VH: EVQLVESGGGLVQPGGSLRLSCAASGFTVSSNYMSWVRQAPGKGLEWVSLIYSGGSTYYADSVKGRFTISRHNSKNTLYLQMNSLRSEDTAVYYCARVPLGDYYYGMDVWGQGTTVTVSS
VL: B9 VL with W30N, N31K, I33L, K55E, H91S, D93N, P96L, Q100G
B11: mAb10936 (antibody, V domains shown)
VH: QVQLVESGGGVVQPGRSLRLSCAASGFTFRNYGMHWVRQAPGKGLEWVSVIWYDGSNRYYADSVKGRFTISRDTSKNTLYLQMNSLRAEDTAVYYCARDPPITGTTGGDAFDIWGQGTMVTVSS
VL: not shown
B12: mAb10937 (antibody, V domains shown)
VH: QITLKESGPTLVKPTQTLTLTCTFSGFSLSTNVVGVGWIRQPPGKALEWLALIYWNDDKRYSPSLKSRLTITKDTSKNQVVLTMTNMDPVDTATYYCAHGPTGDYFDYWGQGTLVTVSS
VL: not shown
B13: mAb10938 (antibody, V domains shown)
VH: EVQLVESGGGLVQPGGSLRLSCAVSGFTVSSNYMSWVRQAPGKGLEWVSLIYSGGSTFYADSVKGRFTISRHNSKNTLYLQMNSLRAEDTAVYYCAREGGYSYDYNYWGQGTLVTVSS
VL: B9 VL with W30R, I33L, K55E, S65I, H91Y, D93N, P96I, K103R, V104L
B14: mAb10939 (antibody, V domains shown)
VH: EVQLVESGGGLVQPGGSLRLSCAASGLTVSSNYMNWVRQVPGKGLEWVSVIYSGGSKFYVDSVKGRFTISRHNSKNTLYLQMNSLRPEDTAVYYCTRDAQYYGMDVWGQGTTVTVSS
VL: DIQMTQSPSSLSASVGDRVTITCRASQSISTYLHWYQQKPGEAPKLLIYAASSLQSGVPSRFSGSGSGTDFTLTISSLQPEDFATYYCQQSYSTPPEIFGQGTKLEIKR
B15: mAb10954 (antibody, V domains shown)
VH: EVQLVESGGGLVQPGGSLRLSCAASGITVSSNYMSWVRQAPGKGLEWVSLIYSGGSTYYADSVKGRFTISRDNSKNTLYLQMNSLRVEDTAVYYCARDHGMAAAGYNYWGQGTLVTVSS
VL: B9 VL with W30N, N31K, I33L, K55E, S76N, I83F, Y87F, H91Y, D93N, T97A
B16: mAb10955 (antibody, V domains shown)
VH: EVQLVESGGGLVQPGGSLRVSCAASGFTVSRNYMSWVRQAPGKGLEWVSVIYSGGSTFYADSVKGRFTISRDNSKNTLYLQMNSLRAEDTAIYYCARYIPRFDPWGQGTLVTVSS
VL: B9 VL with W30S, I33L, Y36F, K42R, K55E, H91Y, D93N, P96I, K103R, V104L
B17: mAb10956 (antibody, V domains shown)
VH: B2 VH with I28T, R31S, I35S, H72D, G100I, T101K, G102Y
VL: not shown

Target: SARS-COV-2 RBD extracellular domain expressed with a C-terminal mouse IgG2a (SARS-CoV-2)
Test: SPR Biacore, mAb captured via anti-hFc, 25 C

Q: Which results are given for B1?
A: Kd: 0.0553 nM; koff: 0.000277 s⁻¹; kon: 5e+06 M⁻¹ s⁻¹; t½: 41.7 min

Q: What does the source list for B2?
A: Kd: 0.54 nM; t½: 82.5 min

Q: Which Kd does the source give for B3 here?
A: Its Kd is 0.0323 nM.

Q: What about the “t½” value of the same binder?
A: The value was 1270 min.

Q: What does the source list for B4?
A: Kd: 0.0502 nM; t½: 45.3 min

Q: How did the Kd turn out when B5 was run?
A: The Kd was 0.125 nM.

Q: What about the koff of the same binder?
A: The koff was 3.34e-05 s⁻¹.

Q: What about the kon of the same binder?
A: The kon was 266000 M⁻¹ s⁻¹.

Q: What about the “t½” value of the same binder?
A: Its value is 346 min.

Q: Which results are given for B6?
A: Kd: 0.0367 nM; koff: 0.000135 s⁻¹; kon: 3.69e+06 M⁻¹ s⁻¹; t½: 85.6 min

Q: B7 was tested. Which Kd did it give?
A: The Kd was 0.181 nM.

Q: What about the koff of the same binder?
A: Its koff is 0.000171 s⁻¹.

Q: What about the kon of the same binder?
A: Its kon is 943000 M⁻¹ s⁻¹.

Q: And the “t½” value?
A: The value was 67.5 min.

Q: What does the source list for B8?
A: Kd: 0.0967 nM; koff: 2.85e-05 s⁻¹; kon: 295000 M⁻¹ s⁻¹; t½: 405 min

Q: B9 was tested. Which Kd did it give?
A: The Kd was 0.0139 nM.

Q: For B10, which Kd is on record?
A: The Kd was 0.0794 nM.

Q: What about the koff of the same binder?
A: The koff was 0.000107 s⁻¹.

Q: What about the kon of the same binder?
A: The kon was 1.35e+06 M⁻¹ s⁻¹.

Q: And the “t½” value?
A: Its value is 108 min.

Q: B11 was tested. Which Kd did it give?
A: The Kd was 0.0283 nM.

Q: And the koff?
A: Its koff is 5.04e-05 s⁻¹.

Q: What about the kon of the same binder?
A: The kon was 1.78e+06 M⁻¹ s⁻¹.

Q: And the “t½” value?
A: Its value is 229 min.

Q: For B12, which Kd is on record?
A: Its Kd is 0.0304 nM.

Q: And the koff?
A: Its koff is 5.4e-05 s⁻¹.

Q: What about the kon of the same binder?
A: Its kon is 1.78e+06 M⁻¹ s⁻¹.

Q: And the “t½” value?
A: The value was 214 min.

Q: With B13 as the binder, how does the Kd read?
A: Its Kd is 0.0702 nM.

Q: And the “t½” value?
A: The value was 683 min.

Q: Which results are given for B14?
A: Kd: 0.121 nM; koff: 8.74e-05 s⁻¹; kon: 722000 M⁻¹ s⁻¹; t½: 132 min

Q: Which results are given for B15?
A: Kd: 0.0203 nM; t½: 242 min

Q: B16 was tested. Which Kd did it give?
A: The Kd was 0.0771 nM.

Q: And the “t½” value?
A: Its value is 125 min.

Q: For B17, which Kd is on record?
A: Its Kd is 0.0887 nM.

Q: What about the “t½” value of the same binder?
A: The value was 88.8 min.
